The target in series [1] is T1, IL-17 (Homo sapiens, UniProt Q16552 Q16552:24-155).
T1 sequence: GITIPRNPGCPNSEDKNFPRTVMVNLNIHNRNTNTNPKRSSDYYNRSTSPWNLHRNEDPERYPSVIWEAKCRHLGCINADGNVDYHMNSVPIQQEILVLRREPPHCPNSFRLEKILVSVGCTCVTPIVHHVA
Description: SPR; IL-17R-Fc on chip. The conditions noted are these: chain copies: 2. How it is done:
Whether aptamers shown by aptamer Nos. 1-49 inhibit the binding of IL-17 and IL-17 receptor was evaluated by the surface plasmon resonance method.
For the measurement, BIAcore2000 manufactured by BIAcore was used. […] As an analyte, IL-17 (100 or 150 nM) and an aptamer (50 or 100 nM) shown by aptamer No. 1-49 were mixed, maintained for 15 min and after that the mixture was flown.
Background: Surface plasmon resonance follows binding to a sensor surface in real time, without labels.

For series [2], the target named is T1, IL-17. Description: SPR; IL-17 150 nM, aptamer 12.5 or 50 nM. The conditions noted are these: chain copies: 2. The method, then:
Whether the synthesized aptamers inhibit the binding of IL-17 and IL-17 receptor was evaluated by the surface plasmon resonance method.
For the measurement, BIAcore T100 manufactured by GE Healthcare Bio Sciences was used. […] As an analyte, IL-17 (150 nM) and each aptamer (12.5 or 50 nM) shown by Table 3 were mixed, maintained for 15 min and after that the mixture was flown.

B1: aptamer No. 27 (mixed)
mixed: GGGUAGCCGGAGGAGTCAGTAAUCGGTACCC
modifications: 2'-OMe (M), 2'-F (F), PS (S) as marked; uppercase DNA [2'-OMe: 1,2,3,4,7,8,10,13,14,21,23,24,25,26,28,29,30,31; 2'-F: 17; PS: 6]
Regarding B1, in the series with IL-17 [1], the binding signal is 13.3 % IL-17/IL-17R binding remaining.

B2: aptamer No. 64 (mixed)
mixed: GGGUAGCCGGAGGAGTCAGTAAUCGGUACCC
modifications: 2'-OMe (M), 2'-F (F), PS (S) as marked; uppercase DNA [2'-OMe: 1,2,3,4,5,7,8,10,13,14,17,21,22,23,24,25,26,28,29,30,31; 2'-F: 11,18,27; PS: 6,15,19]
Turning to B2, the binding signal in the series with IL-17 [2] is 29.3 % IL-17/IL-17R binding remaining.

B3: aptamer No. 54 (mixed)
RNA: GGGUAGCCGGAGGAGUCAGUAAUCGGUACCC
modifications: 2'-OMe (M), 2'-F (F), PS (S) as marked; uppercase DNA (U = deoxyuridine) [2'-OMe: 1,2,3,4,7,8,10,13,14,21,22,23,24,25,26,28; 2'-F: 11,17,18,27; PS: 6; dU: 16,20]
With B3, the binding signal with IL-17 [2] is 25.1 % IL-17/IL-17R binding remaining.

B4: aptamer No. 59 (mixed)
mixed: GGGUAGCCGGAGGAGTCAGTAAUCGGUACCC
modifications: 2'-OMe (M), 2'-F (F), PS (S) as marked; uppercase DNA [2'-OMe: 1,2,3,4,7,8,10,13,14,19,21,22,23,24,25,26,28,29,30,31; 2'-F: 11,17,18,27; PS: 6,15]
As to B4, the binding signal in the series with IL-17 [2] was 36.5 % IL-17/IL-17R binding remaining.

B5: aptamer No. 70 (mixed)
RNA: GGGUAGCCGGAGGAGUCAGUAAUCGGUACCC
modifications: 2'-OMe (M), 2'-F (F), PS (S) as marked; uppercase DNA [2'-OMe: 1-5,7,8,10,13,14,21-26,28-31; 2'-F: 11,16,17,18,20,27; PS: 6,15,19]
B5: the binding signal in the series with IL-17 [2] was 35 % IL-17/IL-17R binding remaining.

B6: aptamer No. 93 (mixed)
RNA: GGGUAGCCGGAGGAGUCAGUAAUCGGUACCC
modifications: 2'-OMe (M), 2'-F (F), PS (S) as marked; uppercase DNA [2'-OMe: 1-5,7,8,10,11,13,14,21,23-26,28-31; 2'-F: 16-18,20,27; PS: 6,15,19; DNA: 9]
Take B6: the binding signal with IL-17 [2] was 30.6 % IL-17/IL-17R binding remaining.

B7: aptamer No. 53 (mixed)
mixed: GGGUAGCCGGAGGAGTCAGTAAUCGGUACCC
modifications: 2'-OMe (M), 2'-F (F), PS (S) as marked; uppercase DNA [2'-OMe: 1,2,3,4,7,8,10,13,14,21,22,23,24,25,26,28; 2'-F: 11,17,18,27; PS: 6,19]
On to B7, for which the binding signal in the series with IL-17 [2] was 22.6 % IL-17/IL-17R binding remaining.

B8: aptamer No. 92 (mixed)
RNA: GGGUAGCCGGAGGAGUCAGUAAUCGGUACCC
modifications: 2'-OMe (M), 2'-F (F), PS (S) as marked; uppercase DNA [2'-OMe: 1-5,7,8,10,11,13,14,22-26,28-31; 2'-F: 16-18,20,27; PS: 6,15,19; DNA: 9]
Regarding B8, the binding signal with IL-17 [2] was 31.6 % IL-17/IL-17R binding remaining.

B9: aptamer No. 47 (mixed)
mixed: GGGUAGCCGGAGGAGTCAGTAAUCGGUACCC
modifications: 2'-OMe (M), 2'-F (F) as marked; uppercase DNA [2'-OMe: 1-4,7,8,10,13,14,23-26,28; 2'-F: 11,17,18,27]
Consider B9, for which the binding signal with IL-17 [1] was 17.6 % IL-17/IL-17R binding remaining.

B10: aptamer No. 69 (mixed)
RNA: GGGUAGCCGGAGGAGUCAGUAAUCGGUACCC
modifications: 2'-OMe (M), 2'-F (F), PS (S) as marked; uppercase DNA [2'-OMe: 1-5,7,8,10,13,14,21-26,28-31; 2'-F: 11,16,17,18,20,27; PS: 6]
With B10, in the series with IL-17 [2], the binding signal was 18.4 % IL-17/IL-17R binding remaining.

B11: aptamer No. 83 (mixed)
RNA: GGGUAGCCGGAGGAGUCAGUAAUCGGUACCC
modifications: 2'-OMe (M), 2'-F (F), PS (S) as marked; uppercase DNA [2'-OMe: 1-5,7,8,10,11,13,14,17,21-26,28-31; 2'-F: 16,18,20,27; PS: 6,15,19; DNA: 9]
On to B11, for which the binding signal with IL-17 [2] was 33.5 % IL-17/IL-17R binding remaining.

B12: aptamer No. 68 (mixed)
RNA: GGGUAGCCGGAGGAGUCAGUAAUCGGUACCC
modifications: 2'-OMe (M), 2'-F (F), PS (S) as marked; uppercase DNA [2'-OMe: 1-5,7,8,10,13,14,21-26,29-31; 2'-F: 11,16,17,18,20,27; PS: 6,15,19]
On to B12, for which the binding signal in the series with IL-17 [2] was 37 % IL-17/IL-17R binding remaining.

B13: aptamer No. 49 (mixed)
mixed: GGGUAGCCGGAGGAGTCAGTAAUCGGUACCC
modifications: 2'-OMe (M), 2'-F (F) as marked; uppercase DNA; (PI) printed, likely (M) [2'-OMe: 1-4,7,8,10,14,23-26,28; 2'-F: 17,27; 13 printed (PI), likely 2'-OMe]
Take B13: the binding signal in the series with IL-17 [1] was 19 % IL-17/IL-17R binding remaining.

B14: aptamer No. 86 (mixed)
mixed: GGGUAGCCGGAGGAGTCAGTGAUCGGUACCC
modifications: 2'-OMe (M), 2'-F (F), PS (S) as marked; uppercase DNA [2'-OMe: 1-5,7,8,10,11,13,14,17,21-31; 2'-F: 18; PS: 6,15,19; DNA: 9,16,20]
As for B14, the binding signal in the series with IL-17 [2] was 35.7 % IL-17/IL-17R binding remaining.

B15: aptamer No. 33 (mixed)
mixed: GGGUAGCCGGAGGAGTCAGTAAUCGGTACCC
modifications: 2'-OMe (M), 2'-F (F) as marked; uppercase DNA [2'-OMe: 1,2,3,4,7,8,10,13,14,21,23,24,25,26; 2'-F: 17]
Regarding B15, in the series with IL-17 [1], the binding signal was 15.9 % IL-17/IL-17R binding remaining.

B16: aptamer No. 60 (mixed)
mixed: GGGUAGCCGGAGGAGTCAGTAAUCGGUACCC
modifications: 2'-OMe (M), 2'-F (F), PS (S) as marked; uppercase DNA [2'-OMe: 1,2,3,4,5,7,8,10,13,14,19,21,22,23,24,25,26,28,29,30,31; 2'-F: 11,17,18,27; PS: 6,15]
For the molecule B16, the binding signal with IL-17 [2] is 31.9 % IL-17/IL-17R binding remaining.

B17: aptamer No. 29 (mixed)
mixed: GGGUAGCCGGAGGAGTCAGTAAUCGGTACCC
modifications: 2'-OMe (M), 2'-F (F) as marked; uppercase DNA [2'-OMe: 1,2,3,4,7,8,10,13,14,21,22,23,24,25,26,28,29,30,31; 2'-F: 17]
Regarding B17, the binding signal in the series with IL-17 [1] is 13.3 % IL-17/IL-17R binding remaining.

B18: aptamer No. 91 (mixed)
mixed: GGGUAGCCGGAGGAGTCAGTAAUCGGUACCC
modifications: 2'-OMe (M), 2'-F (F), PS (S) as marked; uppercase DNA [2'-OMe: 1-5,7,8,10,11,13,14,17,23-31; 2'-F: 18; PS: 6,15,19; DNA: 9,16,20]
With B18, the binding signal in the series with IL-17 [2] was 35.1 % IL-17/IL-17R binding remaining.

B19: aptamer No. 73 (mixed)
RNA: GGGUAGCCGGAGGAGUCAGUAAUCGGUACCC
modifications: 2'-OMe (M), 2'-F (F), PS (S) as marked; uppercase DNA [2'-OMe: 1-5,7,8,10,13,14,21-31; 2'-F: 11,16,17,18,20; PS: 6,15,19]
As to B19, the binding signal in the series with IL-17 [2] was 32 % IL-17/IL-17R binding remaining.

B20: aptamer No. 80 (mixed)
RNA: GGGUAGCCGGAGGAGUCAGUAAUCGGUACCC
modifications: 2'-OMe (M), 2'-F (F), PS (S) as marked; uppercase DNA [2'-OMe: 1-5,7,8,10,13,14,21-26,29-31; 2'-F: 11,16,17,18,20,27; PS: 6; DNA: 9,28]
B20: the binding signal with IL-17 [2] is 25.3 % IL-17/IL-17R binding remaining.

B21: aptamer No. 78 (mixed)
mixed: GGGUAGCCGGAGGAGTCAGTAAUCGGUACCC
modifications: 2'-OMe (M), 2'-F (F) as marked; uppercase DNA [2'-OMe: 1-5,7,8,10,13,14,21-31; 2'-F: 11,17,18; DNA: 9,16,20]
For B21, in the series with IL-17 [2], the binding signal was 23.3 % IL-17/IL-17R binding remaining.

B22: aptamer No. 87 (mixed)
mixed: GGGUAGCCGGAGGAGTCAGTGAUCGGUACCC
modifications: 2'-OMe (M), 2'-F (F), PS (S) as marked; uppercase DNA [2'-OMe: 1-5,7,8,10,11,13,14,17,22-31; 2'-F: 18; PS: 6,15,19; DNA: 9,16,20]
Regarding B22, in the series with IL-17 [2], the binding signal was 32.4 % IL-17/IL-17R binding remaining.

B23: aptamer No. 81 (mixed)
mixed: GGGUAGCCGGAGGAGTCAGTAAUCGGUACCC
modifications: 2'-OMe (M), 2'-F (F), PS (S) as marked; uppercase DNA [2'-OMe: 1-5,7,8,10,11,13,14,17,21-31; 2'-F: 18; PS: 6,15,19; DNA: 9,16,20]
For the molecule B23, the binding signal with IL-17 [2] was 34.3 % IL-17/IL-17R binding remaining.

For the origin of these results see US20160046944, “APTAMER TO IL-17 AND USE THEREOF” (THE UNIVERSITY OF TOKYO, published 2016).
